Reference: patent publication US20240254240A1 (INSTITUTE FOR BASIC SCIENCE, published 2024)
One block for each binder: values may come before it.

B3: Human Tie2 ECD (residues 23-735 of human Tie2) (receptor, UniProt Q02763 23-735, looked up)
chain: AMDLILINSLPLVSDAETSLTCIASGWRPHEPITIGRDFEALMNQHQDPLEVTQDVTREWAKKVVWKREKASKINGAYFCEGRVRGEAIRIRTMKMRQQASFLPATLTMTVDKGDNVNISFKKVLIKEEDAVIYKNGSFIHSVPRHEVPDILEVHLPHAQPQDAGVYSARYIGGNLFTSAFTRLIVRRCEAQKWGPECNHLCTACMNNGVCHEDTGECICPPGFMGRTCEKACELHTFGRTCKERCSGQEGCKSYVFCLPDPYGCSCATGWKGLQCNEACHPGFYGPDCKLRCSCNNGEMCDRFQGCLCSPGWQGLQCEREGIQRMTPKIVDLPDHIEVNSGKFNPICKASGWPLPTNEEMTLVKPDGTVLHPKDFNHTDHFSVAIFTIHRILPPDSGVWVCSVNTVAGMVEKPFNISVKVLPKPLNAPNVIDTGHNFAVINISSEPYFGDGPIKSKKLLYKPVNHYEAWQHIQVTNEIVTLNYLEPRTEYELCVQLVRRGEGGEGHPGPVRRFTTASIGLPPPRGLNLLPKSQTTLNLTWQPIFPSSEDDFYVEVERRSVQKSDQQNIKVPGNLTSVLLNNLHPREQYVVRARVNTKAQGEWSEDLTAWTLSDILPPQPENIKISNITHSSAVISWTILDGYSISSITIRYKVQGKNEDQHVDVKIKNATITQYQLKGLEPETAYQVDIFAENNIGSSNPAFSHELVTLPES
notes: range 23-735; also called hTie2 ECD; hTie2

What was measured:
[1] = molecular target: B3; assay: SPR (Biacore), hTie2 ECD immobilised on the chip (y axis 'RU (Tie2 ECD)'), antibody as analyte at 128, 256, 512, 1024 and 2048 nM, 1:1 binding model [panel i]
[2] = molecular target: T1, hTie2 Ig3-Fn3 D682C/N691C (constitutive Tie2 dimer) (human, UniProt Q02763 349-738, Covalent homodimer: two copies of this chain joined by two intermolecular disulfide bonds between the introduced cysteines (C682 of one chain with C691 of the other); one copy is given.); assay: size-exclusion chromatography and negative-stain EM of the complex
T1 construct: The positions count on full-length human Tie2; the Ig3-Fn3 entry is used; also called Tie2 dimeric mutant; hTie2 Ig3-Fn3 N691C/D682C
T1 chain: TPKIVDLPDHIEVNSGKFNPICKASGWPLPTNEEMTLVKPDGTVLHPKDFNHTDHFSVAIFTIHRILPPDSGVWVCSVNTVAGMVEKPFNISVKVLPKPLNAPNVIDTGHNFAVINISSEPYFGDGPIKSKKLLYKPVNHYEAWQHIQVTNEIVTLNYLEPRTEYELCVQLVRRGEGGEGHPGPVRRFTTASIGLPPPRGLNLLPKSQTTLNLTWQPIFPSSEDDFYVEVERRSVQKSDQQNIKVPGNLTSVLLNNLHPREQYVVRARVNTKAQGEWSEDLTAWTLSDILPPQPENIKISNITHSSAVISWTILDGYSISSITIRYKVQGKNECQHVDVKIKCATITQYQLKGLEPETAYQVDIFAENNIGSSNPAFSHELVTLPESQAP
Source text: The two residues D682 and N691 involved in the homotypic Fn3-Fn3′ interaction were mutated to cysteines (D682C and N691C) to introduce a disulfide bond (FIGS. 6d and e). […] After removal of aggregates by SEC, the structural arrangement of the resulting complex (peak of the shoulder) was examined using negative-stain electron microscopy (EM) (FIGS. 6f and 7).

[3] = molecular target: B3; assay: SPR (Biacore T200), hTie2 ECD amine-coupled on CM5, antibody as analyte, 1:1 model
Protocol: HEPES-buffered saline (0.01 M HEPES and 0.15 M NaCl) containing 3 mM EDTA (ethylenediaminetetraacetic acid) and 0.05% (v/v) P20 detergent (HBS-EP+) was used as reaction and running buffer (BR100669, GE Healthcare). Human Tie2 ECD (produced in-house; residues 23-735 of human Tie2, GenBank accession number: AAH35514.2) was immobilized on the surface of a CM5 sensor chip by amine coupling using 10 mM acetate at a pH of 5.5. […] Analytes bound to the sensor chips were dissociated by washing with HBS-EP+running buffer for 300 seconds. Both association (Kₒₙ, M⁻¹s⁻¹) and dissociation (Koff, s⁻¹) constants were measured at 300-second intervals. The equilibrium dissociation constant (KD, M) was calculated as the ratio of off-rate to on-rate (Koff/kₒₙ). Kinetic parameters were determined with the global fitting function of Biacore Insight Evaluation Software using a 1:1-binding model.
After purification, binding kinetics of the obtained antibodies to hTie2 ECD were evaluated using SPR.

[4] = molecular target: the molecule itself; assay: SEC-MALS (self-association)

- Kd [1]: 1100 nM
- koff [1]: 0.003 s⁻¹
- kon [1]: 2800 M⁻¹ s⁻¹
B1: 3H7H12G4 (previously reported humanized antibody 3H7) (antibody, V domains shown)
VH: QVQLVQSGAEVKKPGASVKVSCKASGYTFTSYWMNWVRQAPGQGLEWMGMIHPSDSETRLNQKFMDRVTMTRDTSTSTVYMELSSLRSEDTAVYYCARGLYGNSWGQGTLVTVSS
VL: DIQMTQSPSSLSASVGDRVTITCRASQDIGISLNWLQQEPGKAPKRLIYATSSLDSGVPKRFSGSGSGTEFTLTISSLQPEDFATYYCLQYASSPYTFGQGTKVEIK

- binding result [2]: binds
- Kd [3]: 4.2 nM
- koff [3]: 0.0006 s⁻¹
- kon [3]: 140000 M⁻¹ s⁻¹
B2: hTAAB, hTie2-activating mouse monoclonal antibody (mouse IgG1) (antibody, V domains shown)
VH: QVQLQQPGAELVRPGASVKLSCKASGYSFTSYWMNWVKQRPGQGLEWIGMIHPSDSETRLNQKFMDKATLTVDKSSSTAYMQLSSPTSEDSAVYYCARGLYGNSWGQGTLVTVSA
VL: DIQMTQSPSSLSASLGERVSLTCRASQDIGISLNWLQQEPDGTIKRLIYATSSLDSGVPKRFSGSRSGSDYSLTISSLESEDFVDYYCLQYASSPYTFGGGTKLEIK
notes: Mouse IgG1 from hybridoma; Only the variable regions are tied to the whole antibody; also called mouse hTAAB; parental hTAAB

Binder: B3
- binding result [4]: no binding (tested: 1 mg/ml)
